This test has as its target T1, POPDC1-Myc (Popeye domain-containing protein 1, Myc-tagged) (mouse, UniProt Q9ES83 1-358).
T1 construct: POPDC1 (Bves), mouse; construct described in Froese et al 2012 and Schindler et al 2016b; Mouse is stated for the BiFC constructs, which were made from the previously described tagged constructs; also called Myc-tagged POPDC1; BVES; source: HEK293 or COS-7, transfected, in cells or in lysate
T1 sequence (looked up): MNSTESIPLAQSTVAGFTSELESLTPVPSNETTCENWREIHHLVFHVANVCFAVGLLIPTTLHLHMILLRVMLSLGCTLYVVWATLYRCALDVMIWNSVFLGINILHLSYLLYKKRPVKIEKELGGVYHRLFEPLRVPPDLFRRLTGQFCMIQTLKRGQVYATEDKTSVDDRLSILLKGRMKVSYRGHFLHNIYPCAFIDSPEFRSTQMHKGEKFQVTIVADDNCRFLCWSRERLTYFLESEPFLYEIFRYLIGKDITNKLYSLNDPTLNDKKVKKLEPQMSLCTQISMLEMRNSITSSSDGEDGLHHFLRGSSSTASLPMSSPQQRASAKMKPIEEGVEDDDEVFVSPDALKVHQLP
Kind of test: co-IP; IP-AC assay: HEK293 lysates expressing AC1 or AC8 with or without Myc-tagged POPDC1, immunoprecipitation with anti-MYC, AC activity stimulated with 100 μM calcium and 300 nM calmodulin. The following applies: partners not purified.

B1: nontagged AC1 (adenylyl cyclase 1) (enzyme)
chain: not shown
notes: adenylyl cyclase 1 (AC1), Ca2+/calmodulin-stimulated; the plasmid is not described; source: HEK293, transfected, in lysate
Consider B1, for which the “fold Ca2+/calmodulin-stimulated AC activity in the POPDC1 immunoprecipitate over IgG controls” value was 1.59 ± 0.05 fold.

Values taken from PMC9724675, “POPDC1 scaffolds a complex of adenylyl cyclase 9 and the potassium channel TREK‐1 in heart” (EMBO Reports, 2022).
